5 molecules from patent publication US20220024983A1, “BICYCLIC PEPTIDE LIGANDS SPECIFIC FOR IL-17” (BicycleRD Limited, priority 2018, published 2022) can be followed below.

As a reminder, the Ki is a dissociation constant, usually derived from enzyme kinetics or from competition with a known ligand. A low value points to higher affinity. In general, Kd refers to the constant that tells how readily two partners part at equilibrium. Read a high Kd as weaker binding.

In experiment [1] the target is T1, human IL-17A dimer (human, UniProt Q16552 24-155).
T1 construct: also called hIL17-A
T1 sequence (looked up): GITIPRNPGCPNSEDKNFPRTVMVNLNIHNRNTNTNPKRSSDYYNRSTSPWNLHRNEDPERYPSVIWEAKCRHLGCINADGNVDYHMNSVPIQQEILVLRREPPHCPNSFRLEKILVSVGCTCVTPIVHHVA
Put plainly: FP competition, competitor: tracer BCY2311; Ki Mean column, n=6. As for the experimental part:
(§1) Affinity determination by fluorescence polarization (FP) competition. […] Peptides were diluted to an appropriate concentration in assay buffer (PBS+0.01% Tween20, adjusted to pH7.4 using NaOH (1M)) with a maximum of 1% DMSO, then serially diluted 1 in 2 into assay buffer. […] The PHERAstar FS was set at 25° C. with 200 flashes per well and a positioning delay of 0.1 second, with each well measured at 5 to 10 minute intervals for 60 minutes. […] Data analysis was performed in Dotmatics where mP values were fit to the Cheng Prusoff equation in order to generate a Ki value.

Experiment [2] deals with T1, human IL-17A dimer. Put plainly: FP competition, competitor: tracer BCY2311. The procedure: as §1
Experiment [3] addresses T1, human IL-17A dimer. Put plainly: FP competition, competitor: tracer BCY2315; Ki Mean column, n=2. The procedure: as §1
The target of experiment [4] is T1, human IL-17A dimer. Put plainly: FP competition, competitor: tracer BCY2315. As for the experimental part:
as §1

Experiment [5] deals with T1, human IL-17A dimer. Put plainly: binding assay, method analogous to WO 2011/141823; Mean column, n=2.
For experiment [6], the target named is T1, human IL-17A dimer. Nature of the experiment: binding assay, method analogous to WO 2011/141823.
The next experiment addresses T2, mouse IL-17A dimer (mouse, UniProt Q62386 26-158).
T2 sequence (looked up): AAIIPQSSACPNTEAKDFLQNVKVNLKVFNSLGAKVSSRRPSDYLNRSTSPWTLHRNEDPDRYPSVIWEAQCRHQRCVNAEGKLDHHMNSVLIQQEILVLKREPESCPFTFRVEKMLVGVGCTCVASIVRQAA
Nature of the experiment: binding assay, method analogous to WO 2011/141823.

Experiment [7] deals with T1, human IL-17A dimer. Put plainly: binding assay, method analogous to WO 2011/141823. This is another data set of the same source.
For a further experiment, the target named is T3, human IL-17E (human, UniProt Q9H293 33-177).
T3 construct: also called hIL17-E; IL-25
T3 sequence (looked up): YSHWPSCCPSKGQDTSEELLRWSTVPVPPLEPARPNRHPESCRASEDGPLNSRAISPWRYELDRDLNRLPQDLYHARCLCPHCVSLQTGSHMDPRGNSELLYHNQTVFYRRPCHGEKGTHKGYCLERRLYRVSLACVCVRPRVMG
Nature of the experiment: binding assay, method analogous to WO 2011/141823; column head prints hIL17-F, read as IL-17E by paragraph 30.

*1 amine or outer side, *2 acyl side, *3 side chain or, on linkers, in order; H or OH if unused. Bridges are numbered along the chain shown (N, C = ends). Where no end group is shown, it is not given here. TBMB = c1c(C[*:1])cc(C[*:3])cc1C[*:2]

B1: BCY2240 [Ac-(SEQ ID NO: 36)] (peptide)
peptide: Ac-CYEAELCAFLGLC
modifications: linker 1-7-13 via TBMB
notes: Bicyclic peptide
B1: the results for the Ki in the experiment with human IL-17A dimer [1] and with human IL-17A dimer [2] were 25.7 nM and 26.9 nM, respectively.

B2: BCY2249 (peptide)
peptide: CYEDELCEFLALC
modifications: linker 1-7-13 via TBMB
notes: Bicyclic peptide
In the case of B2, the inhibition constant Ki in the experiment with human IL-17A dimer [3] and with human IL-17A dimer [4] was 65 nM throughout.

B3: BCY2310 (peptide)
peptide: ACPQDLELCTFLFGDCAXXXXXXK
modifications: Ci, Cii and Ciii cyclised with TBMB; six sarcosines (written X) after the C-terminal Ala; fluorescein (Fl) on the C-terminal Lys
On to B3, for which the values for the equilibrium dissociation constant (Kd) with human IL-17A dimer [5], in the experiment with human IL-17A dimer [6] and with mouse IL-17A dimer were 26.6 nM, 26.6 nM and 110 nM, respectively.

B4: BCY2232 (peptide)
peptide: CPENELYCFLSSQQC
modifications: linker 1-8-15 via TBMB
notes: Bicyclic peptide
For the molecule B4, in the experiment with human IL-17A dimer [7], the dissociation constant Kd came to 398 nM.

B5: BCY2240 [A-(SEQ ID NO: 56)-A] (peptide)
peptide: ACGYDYYCALYDICA
modifications: linker 2-8-14 via TBMB
notes: Bicyclic peptide
Consider B5, for which binding in the experiment with human IL-17E was put at a Kd of 198 nM. In other words, the sub-micromolar range.
